# T1: human GLP-1 receptor (Abcam) (human, UniProt P43220 24-145)
# T1 chain: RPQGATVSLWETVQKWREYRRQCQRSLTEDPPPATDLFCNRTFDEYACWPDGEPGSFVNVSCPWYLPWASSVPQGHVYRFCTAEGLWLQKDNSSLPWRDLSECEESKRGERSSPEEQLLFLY
# Columns and labels:
# Dulaglutide = experiment: BLI
# [1] = target: T1, human GLP-1 receptor (Abcam); experiment: BLI
Kd (Dulaglutide) [µM],Kd [1] [µM],Binder
0.395,–,GLP-1 receptor (receptor) RPQGATVSLWETVQKWREYRRQCQRSLTEDPPPATDLFCNRTFDEYACWPDGEPGSFVNVSCPWYLPWASSVPQGHVYRFCTAEGLWLQKDNSSLPWRDLSECEESKRGERSSPEEQLLFLY
–,45,"GLP-1(A2G)-hyFc9 (Fc fusion, O-glycosylation at the IgD hinge region (positions not stated)) HGEGTFTSDVSSYLEGQAAKEFIAWLVKGRGAKATTAPATTRNTGRGGEEKKKEKEKEEQEERETKTPECPSHTQPLGVFLFPPKPKDTLMISRTPEVTCVVVDVSQEDPEVQFNWYVDGVEVHNAKTKPREEQFNSTYRVVSVLTVLHQDWLNGKEYKCKVSNKGLPSSIEKTISKAKGQPREPQVYTLPPSQEEMTKNQVSLTCLVKGFYPSDIAVEWESNGQPENNYKTTPPVLDSDGSFFLYSRLTVDKSRWQEGNVFSCSVMHEALHNHYTQKSLSLSLGK"

# Reference: patent US20200282021A1 (published 2020)
